The chains are these.
B3: C-terminal His6-tagged Neisseria HU protein (natural protein, UniProt P64389 1-89, looked up)
chain: MNKSELIEAIAQEADISKAAAQKALDATTNAVTTALKQGDTVTLVGFGTFYVGERAERQGRNPKTGEPLTIAAAKTPKFRAGKALKDAL

Like-named read-outs stand apart in the source and are kept apart here.

The target in data set [1] is B3. Kind of data set: SEC. A general note: SEC sorts molecules by how far they enter the pores of the column.
A further data set addresses T1, HU (C-His6) (Neisseria meningitidis, UniProt P64389 1-89).
T1 sequence: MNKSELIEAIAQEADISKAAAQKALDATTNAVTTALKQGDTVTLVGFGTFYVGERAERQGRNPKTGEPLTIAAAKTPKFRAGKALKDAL
Kind of data set: ITC. Background: ITC needs no label: the signal is the heat of the interaction.

The data set “SEC” deals with the molecule itself. Kind of data set: SEC.
In data set [2] the target is T2, DMP12 (Neisseria meningitidis conserved hypothetical protein NMB2123), tag-free (N. meningitidis, UniProt Q9JXC6 1-118).
T2 sequence (looked up): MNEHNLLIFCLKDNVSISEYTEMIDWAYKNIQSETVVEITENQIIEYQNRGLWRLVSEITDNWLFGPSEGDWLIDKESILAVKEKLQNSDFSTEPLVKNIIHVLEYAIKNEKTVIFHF
Description: ITC.

The target in data set [3] is T2, DMP12 (Neisseria meningitidis conserved …). Kind of data set: ITC. This is another data set of the same source.
The data set “AUC” deals with the molecule itself. Description: AUC.

The term stoichiometry N denotes a count of units in the complex or per binding partner. The term Kd denotes the free concentration of one partner at which half of the binding sites on the other are occupied at equilibrium, for simple one-to-one binding.

B1: N-terminal His10-tagged DMP12 (natural protein, N. meningitidis, UniProt Q9JXC6 1-118, looked up)
chain: MNEHNLLIFCLKDNVSISEYTEMIDWAYKNIQSETVVEITENQIIEYQNRGLWRLVSEITDNWLFGPSEGDWLIDKESILAVKEKLQNSDFSTEPLVKNIIHVLEYAIKNEKTVIFHF
In the case of B1, in data set [1], the “stoichiometry N” value was 1 DMP12 monomer per HU dimer.

B2: 8mer dsDNA (dsDNA)
DNA 1: CTCGCGAG
DNA 2: CTCGCGAG
As to B2, in the data set with HU (C-His6), the Kd was 720 ± 60 nM.

On to B3, for which the “stoichiometry N” value in “SEC” was 2; in data set [3] it was 0.96 ± 0.01; in the data set “AUC” it was 2. Moreover, the Kd in data set [2] was determined as 2810 ± 430 nM; in data set [3], 2820 ± 430 nM. For the same molecule, the dH in data set [3] is -6.17 ± 0.55 kcal/mol.

These data come from article PMC3643605 (Nucleic Acids Research, 2013).
